# Results as given in US20220168347A1 (published 2022).
# T1: gp100 (gp100-intron4) peptide on HLA-A*24:02 (human)
# T1 peptide: VYFFLPDHL
# Molecular target: T1, gp100 (gp100-intron4) peptide on …
# Assay: multimer staining
binder,measurement,value
"A*24:02/gp100-intron4 TCR (TCR, V domains shown) Valpha: KQEVTQIPAALSVPEGENLVLNCSFTDSAIYNLQWFRQDPGKGLTSLLLIQSSQREQTSGRLNASLDKSSGRSTLYIAASQPGDSATYLCAVATDSWGKLQFGAGTQVVVTP Vbeta: AAGVIQSPRHLIKEKRETATLKCYPIPRHDTVYWYQQGPGQDPQFLISFYEKMQSDKGSIPDRFSAQQFSDYHSELNMSSLELGDSALYFCASSLLPEGTGRVSGYTFGSGTRLTVV",binding result,recognises
